Data: patent US20250188166A1 (BRIGHT PEAK THERAPEUTICS, published 2025)

T1: IL-18R on HEK-Blue IL18R reporter cells (UniProt Q13478 19-541; O95256 20-599)
T1 sequence (looked up) 1: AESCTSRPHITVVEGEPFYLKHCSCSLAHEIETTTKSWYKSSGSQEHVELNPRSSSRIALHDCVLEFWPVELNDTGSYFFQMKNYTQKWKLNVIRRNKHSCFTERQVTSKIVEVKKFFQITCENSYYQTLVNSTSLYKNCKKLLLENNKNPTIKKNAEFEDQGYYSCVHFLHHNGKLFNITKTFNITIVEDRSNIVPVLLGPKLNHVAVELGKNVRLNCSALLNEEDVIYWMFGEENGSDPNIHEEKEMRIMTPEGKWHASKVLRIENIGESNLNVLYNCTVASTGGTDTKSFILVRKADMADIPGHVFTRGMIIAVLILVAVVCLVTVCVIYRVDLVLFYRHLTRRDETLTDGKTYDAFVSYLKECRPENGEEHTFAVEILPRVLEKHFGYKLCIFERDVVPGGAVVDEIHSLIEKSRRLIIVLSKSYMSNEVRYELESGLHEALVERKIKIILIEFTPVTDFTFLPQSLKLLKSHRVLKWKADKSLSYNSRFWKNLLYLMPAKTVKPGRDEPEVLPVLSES
T1 sequence (looked up) 2: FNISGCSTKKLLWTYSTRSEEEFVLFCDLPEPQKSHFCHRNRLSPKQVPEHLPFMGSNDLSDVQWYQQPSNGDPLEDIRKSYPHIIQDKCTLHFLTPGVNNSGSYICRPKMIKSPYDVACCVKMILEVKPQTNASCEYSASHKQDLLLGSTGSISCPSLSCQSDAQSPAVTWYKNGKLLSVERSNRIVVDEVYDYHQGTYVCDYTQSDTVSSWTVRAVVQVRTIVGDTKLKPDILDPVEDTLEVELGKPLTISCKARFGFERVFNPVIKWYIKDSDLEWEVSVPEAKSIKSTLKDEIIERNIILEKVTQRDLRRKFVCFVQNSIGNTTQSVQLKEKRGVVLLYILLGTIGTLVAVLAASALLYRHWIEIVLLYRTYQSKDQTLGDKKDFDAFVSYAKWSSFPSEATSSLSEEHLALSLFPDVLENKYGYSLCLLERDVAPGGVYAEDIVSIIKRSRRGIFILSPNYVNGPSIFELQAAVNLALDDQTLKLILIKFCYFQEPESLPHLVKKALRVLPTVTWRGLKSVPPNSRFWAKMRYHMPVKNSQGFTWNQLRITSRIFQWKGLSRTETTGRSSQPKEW


Target: T1, IL-18R on HEK-Blue IL18R reporter cells
Assay: cell-based or functional assay

| EC50, HEK-Blue IL18R SEAP reporter [pM] | Binder |
| --- | --- |
| 0.02 | IL-18 polypeptide C142 (ligand) MFGKLKSKLSIIRNLNDQVLFIDQGNRPLFEDMTDSDARDNAPRTIFIISMYADSQPRGMAVAISVKCEKISTLSAENKIISFKEMNPPDNIKDTKSDIIFFQRSVPGHDNKMQFESSSYEGYFLAAEKERDLFKLILKKEDELGDRSIMFTVQNED |
| 2.02 | IL-18 polypeptide C160 (ligand) YFGKLESKLSIIRNLNDQVLFIDQGNRPLFEDMTDSDARDNAPRTIFIISMYADSQPRGMAVTISVKCEKISTLSAENKIISFKEMNPPDNIKDTKSDIIFFQRSVPGHANKMQFESSSYEGYFLAAEKERDLFKLILKKEDELGDRSIMFTVQNED |
| 19.5 | IL-18 polypeptide C159 (ligand) YFGKLESKLSIIRNLNDQVLFIDQGNRPLFEDMTDSDARDNAPRTIFIISMYADSQPRGMAVTISVKCEKISTLSAENKIISFKEMNPPDNIKDTKSDIIFFQRSVPGADNKMQFESSSYEGYFLAAEKERDLFKLILKKEDELGDRSIMFTVQNED |
| 3.63 | IL-18 polypeptide C145 (ligand) YFGKLESKLSIIRNLNDQVLFIDQGNRPLFEDMTDSDARDNAPRTIFIISMYADAQPRGMAVTISVKCEKISTLSAENKIISFKEMNPPDNIKDTKSDIIFFQRSVPGHDNKMQFESSSYEGYFLAAEKERDLFKLILKKEDELGDRSIMFTVQNED |
| 0.8 | IL-18 polypeptide C146 (SEQ ID NO: 68) (ligand) YFGKLESKLSIIRNLNDQVLFIDQGNRPLFEDMTDSDARDNAPRTIFIISGYADSQPRGMAVTISVKCEKISTLSAENKIISFKEMNPPDNIKDTKSDIIFFQRSVPGHDNKMQFESSSYEGYFLAAEKERDLFKLILKKEDELGDRSIMFTVQNED |
| 0.25 | IL-18 polypeptide C152 (ligand) YFGKLESKLSIIRNLNDQVLFIDQGNRPLFEDMTDADARDNAPRTIFIISMYADSQPRGMAVTISVKCEKISTLSAENKIISFKEMNPPDNIKDTKSDIIFFQRSVPGHDNKMQFESSSYEGYFLAAEKERDLFKLILKKEDELGDRSIMFTVQNED |
| 11.9 | IL-18 polypeptide C154 (ligand) YFGKLESKLSIIRNLNDQVLFIDQGNRPLFADMTDSAARDNAPRTIFIISMYADSQPRGMAVTISVKCEKISTLSAENKIISFKEMNPPDNIKDTKSDIIFFQRSVPGHDNKMQFESSSYEGYFLAAEKERDLFKLILKKEDELGDRSIMFTVQNED |
| 0.7 | IL-18 polypeptide C150 (ligand) YFGKLESKLSIIRNLNDQVLFIDQGNRPLFEDMADSDARDNAPRTIFIISMYADSQPRGMAVTISVKCEKISTLSAENKIISFKEMNPPDNIKDTKSDIIFFQRSVPGHDNKMQFESSSYEGYFLAAEKERDLFKLILKKEDELGDRSIMFTVQNED |
| 2.01 | IL-18 polypeptide C161 (ligand) YFGKLESRLSIIRNLNDQVLFIDQGNRPLFEDMTDSDARDNAPRTIFIISMYKDSQPRGMAVTISVKCEKISTLSAENKIISFKEMNPPDNIKDTKSDIIFFERSVPGHDNKMQFESSSYEGYFLAAEKERDLFKLILKKEDELGDRSIMFTVQNED |
| 13.1 | IL-18 polypeptide C151 (ligand) YFGKLESKLSIIRNLNDQVLFIDQGNRPLFEDMTASDARDNAPRTIFIISMYADSQPRGMAVTISVKCEKISTLSAENKIISFKEMNPPDNIKDTKSDIIFFQRSVPGHDNKMQFESSSYEGYFLAAEKERDLFKLILKKEDELGDRSIMFTVQNED |
| 1 | IL-18 polypeptide C147 (ligand) YFGKLESKLSIIRNLNDQVLFIDQGNRPLFEDMTDSDARDNAPRTIFIISMYAASQPRGMAVTISVKCEKISTLSAENKIISFKEMNPPDNIKDTKSDIIFFQRSVPGHDNKMQFESSSYEGYFLAAEKERDLFKLILKKEDELGDRSIMFTVQNED |
| 0.98 | IL-18 polypeptide C143 (ligand) YFGKLESKLSIIRNLNDQVLFIDQGNRPLFEDMTDSDARDNAPRTIFIISMYADSQPRGMAVTISVKCEKISTLSAENKIISFKEMNPPDNIKDTKSDIIFFQRSVPGHDNKMQFESSSYEGYFLAAEKERDLFKLILKKEDELGDRSIMFTVQNED |
| 1.95 | IL-18 polypeptide C157 (ligand) YFGKLESKLSIIRNLNDQVLFIDQGNRPLFEDMTDSDARDNAPRTIFIISMYADSQPRGMAVTISVKCEKISTLSAENKIISFKEMNPPDNIKDTKSDIIFFQRSVPGHDNKMQFESSSYEGYFLAAEKERALFKLILKKEDELGDRSIMFTVQNED |
| 0.52 | IL-18 polypeptide C155 (ligand) YFGKLESKLSIIRNLNDQVLFIDQGNRPLFEDMTDSDARANAPRTIFIISMYADSQPRGMAVTISVKCEKISTLSAENKIISFKEMNPPDNIKDTKSDIIFFQRSVPGHDNKMQFESSSYEGYFLAAEKERDLFKLILKKEDELGDRSIMFTVQNED |
| 11.7 | IL-18 polypeptide C156 (ligand) YFGKLESKLSIIRNLNDQVLFIDQGNRPLFEDMTDSDARDAAPRTIFIISMYADSQPRGMAVTISVKCEKISTLSAENKIISFKEMNPPDNIKDTKSDIIFFQRSVPGHDNKMQFESSSYEGYFLAAEKERDLFKLILKKEDELGDRSIMFTVQNED |
| 2.3 | IL-18 polypeptide C162 (ligand) YFGKLESELSIIRNLNDQVLFIDQGNRPLFEDMTDSDARDNAPRTIFIISMYKDSQPRGMAVTISVKCEKISTLSAENKIISFKEMNPPDNIKDTKSDIIFFRRSVPGHDNKMQFESSSYEGYFLAAEKERDLFKLILKKEDELGDRSIMFTVQNED |
| 7.28 | IL-18 polypeptide C148 (ligand) YAGKLESKLSIIRNLNDQVLFIDQGNRPLFEDMTDSDARDNAPRTIFIISMYADSQPRGMAVTISVKCEKISTLSAENKIISFKEMNPPDNIKDTKSDIIFFQRSVPGHDNKMQFESSSYEGYFLAAEKERDLFKLILKKEDELGDRSIMFTVQNED |
| 1.5 | IL-18 polypeptide C163 (ligand) YFGKLESKLSIIRNLNDQVLFIDQGNRPLFEDMTDSDARDNAPRTIFIISMYKDSQPRGMAVTISVKCEKISTLSAENKIISFKEMNPPDNIKDTKSDIIFFKRSVPGHDNKMQFESSSYEGYFLAAEKERDLFKLILKKEDELGDRSIMFTVQNED |
| 3.14 | IL-18 polypeptide C164 (ligand) YFGKLESKLSIIRNLNDQVLFIDQGNRPLFEDMTDSDARDNAPRTIFIISMYKDHQPRGMAVTISVKCEKISTLSAENKIISFKEMNPPDNIKDTKSDIIFFQRSVPGHDNKMQFESSSYEGYFLAAEKERDLFKLILKKEDELGDRSIMFTVQNED |
| 0.17 | IL-18 polypeptide C144 (ligand) YFGKLESKLSIIRNLNDQVLFIDQGNRPLFEDMTDSDARDNAPRTIFIISMYADSQPRGMAVAISVKCEKISTLSAENKIISFKEMNPPDNIKDTKSDIIFFQRSVPGHDNKMQFESSSYEGYFLAAEKERDLFKLILKKEDELGDRSIMFTVQNED |
| 14.1 | IL-18 polypeptide C153 (ligand) YFGKLESKLSIIRNLNDQVLFIDQGNRPLFEDMTDSAARDNAPRTIFIISMYADSQPRGMAVTISVKCEKISTLSAENKIISFKEMNPPDNIKDTKSDIIFFQRSVPGHDNKMQFESSSYEGYFLAAEKERDLFKLILKKEDELGDRSIMFTVQNED |
| 15.6 | IL-18 polypeptide C158 (ligand) YFGKLESKLSIIRNLNDQVLFIDQGNRPLFEDMTDSDARDNAPRTIFIISMYADSQPRGMAVTISVKCEKISTLSAENKIISFKEMNPPDNIKDTKSDIIFFQRSVPAHDNKMQFESSSYEGYFLAAEKERDLFKLILKKEDELGDRSIMFTVQNED |
| 6.6 | IL-18 polypeptide C149 (ligand) YFGKLESKLSIIRNLNDQVLFIDQGNRPLFADMTDSDARDNAPRTIFIISMYADSQPRGMAVTISVKCEKISTLSAENKIISFKEMNPPDNIKDTKSDIIFFQRSVPGHDNKMQFESSSYEGYFLAAEKERDLFKLILKKEDELGDRSIMFTVQNED |
